Test results: US20250177548A1, “FUSOGENIC PEPTIDE COMPOSITIONS AND METHODS OF CARGO DELIVERY” (CLEMSON UNIVERSITY, priority 2022, published 2025)
Where “and” joins values, the source holds several entries; their conditions need not be identical. Equal values may be shown once. Entries after “also recorded” stand apart in the source; their conditions may differ. Non-standard residues stand in square brackets, D forms with d. No end group written: not given here. pG = not defined here

Columns and labels:
[1] = gel assay of siRNA protection from degradation in 50% serum; assay type: in vitro ADME; settings: 50% FBS, 1 hour, several N:P ratios
Description: Gel Shift Assays. DIVA3, DIV3H, and DIV3W (all three denoted as DIV3 (X)) peptides suspended in RNase-free water (10 μM), were thawed, and kept on ice prior to complexation with 10 μM of negative control siGENOME non-targeting siRNA #5 (siNT, GE Healthcare Dharmacon, Lafayette, CO) in RNase-free water and incubated for 20 minutes at room temperature to allow the formation of DIV3 (X)-siNT complexes. Various molar ratios of peptides were complexed with siNT at increasing N:P molar ratios to determine the minimum molar ratio necessary to completely complex free siRNAs using an electrophoretic mobility shift assay. To determine the ability of each peptide variant to protect siRNAs from degradation, DIV3 (X)-siNT complexes or siNT alone was left untreated or incubated with either 50% v/v FBS or 5 μg/mL RNase A at 37° C. for one hour. Next, complexes were dissociated using 6% sodium dodecyl sulfate (SDS). Samples were added to a 2% agarose gel and run at 100 V. Gels were stained with ethidium bromide, destained with Milli-Q water, and imaged using a ChemiDoc XRS imager (Bio-Rad, Hercules, CA).
Characterization of Nanoparticle Size and Stability. To determine the minimum molar ratio necessary to completely complex free siRNAs, increasing N:P molar ratios of LHRH, DIV3W, and LHRH-DIV3W peptide were complexed with siRNAs and electrophoresed using a electrophoretic mobility shift assay. Molar ratios, shown as N:P, are representations of the molar amine peptide content in relation to 1 mole of phosphate group siRNA content. To determine the ability of the peptides to protect siRNAs from serum- or RNase-mediated degradation, LHRH and LHRH-DIV3W complexes were formed in RNase-free water with siNT at increasing N:P molar ratios and incubated at 37° C., 5% CO2, 50% v/v FBS, 5 μg/mL RNase A, or 50% v/v RNase free water for 1 hour. Peptide/siRNA complexes were dissociated using 6% sodium dodecyl sulfate (SDS) prior to electrophoresis in a 2% agarose gel run at 100 V. Gels were stained with ethidium bromide, washed with Milli-Q water, and imaged with a BioRad ChemiDoc XRS imager (BioRad, Hercules, CA).
Peptides VA-LD and GF-LD, comprising the cleavable linker VA or GLFG, respectively, between the LHRH target sequence and the DIV3W peptide, and non targeting siRNA were electrostatically complexed at increasing N:P ratios then subjected to agarose gel electrophoresis to determine optimal siRNA binding for each peptide. […] Peptide-siRNA nanocomplexes at increasing N:P ratios for peptides for VA-LD (FIG. 30A) and GF-LD (FIG. 30C) were incubated in either Rnase A enzyme or in 50% fetal bovine serum (FBS) for 1 h, dissociated using SDS then subjected to gel electrophoresis to visualize siRNA bands. Gels showing increasing N:P ratios of peptide:siRNA for VA-LD (FIG. 30B) and GF-LD (FIG. 30D) from 20:1 to 80:1 N:P; white bands are indicative of intact siRNA

CAOV3 cells [2] = test: cellular uptake of labeled siRNA by flow cytometry; assay type: cell-based; settings: for uptake efficiency: 80:1
Description: Cellular Uptake. OVCAR3 and CAOV3 cells were prepared at 50,000 cells per well in a 24-well plate. […] Post-incubation, media was aspirated and cells were washed with 1× PBS. To counterstain the nuclei, SuperSignal NucBlue Hoechst stain (Thermo Fisher, Waltham, MA) was added to the cells for 30 minutes, followed by an additional 1×PBS wash. Subsequent imaging was performed using an EVOS FL Microscope (Thermo Fisher) at 10× magnification. For flow cytometric analysis, cells were detached, resuspended in 1× PBS, and analyzed using an Attune NXT Acoustic flow cytometer (Invitrogen, Carlsbad, CA) with the blue laser line and BL2 (574/26 nm) channel.
Cellular Uptake and Targeting Specificity. Observation of cell uptake was performed by seeding OVCAR3 and CAOV3 cells at a density of 50,000 cells per well in a 24-well plate. LHRH and LHRH-DIV3W peptides were complexed with […] as previously described and delivered to cells at 20:1 to 80:1 N:P ratios. Each cell line was incubated with tandem peptide complexes for both 4- and 24-hour treatment periods. Following incubation, cell media was removed, and cells were washed with 1× PBS prior to the addition of 500 μL of 1×PBS and SuperSignal NucBlue Hoescht 33342 nuclear stain (Thermo Fisher, Waltham, MA). Cellular imaging was completed using an EVOS FL Microscope (Thermo Fisher) at 10×, 20×, and 40× magnification. Flow cytometry was completed after cell imaging and cells were trypsinized, resuspended in 1×PBS, and analyzed with an Attune NXT Acoustic Flow Cytometer (Invitrogen) with the red laser line and RL2 […] channel.

LHRH receptor = biological target: T1, LHRH receptor (Homo sapiens, UniProt P30968); test: competitive binding assay with LHRH receptor antibody; assay type: cell-based; settings: OVCAR3 and CAOV3 cells, siNT-Cy5.5 complexes, 4 hours
T1 construct: endogenous in cells; host or cells: OVCAR3, CAOV3
T1 sequence (P30968 1-328): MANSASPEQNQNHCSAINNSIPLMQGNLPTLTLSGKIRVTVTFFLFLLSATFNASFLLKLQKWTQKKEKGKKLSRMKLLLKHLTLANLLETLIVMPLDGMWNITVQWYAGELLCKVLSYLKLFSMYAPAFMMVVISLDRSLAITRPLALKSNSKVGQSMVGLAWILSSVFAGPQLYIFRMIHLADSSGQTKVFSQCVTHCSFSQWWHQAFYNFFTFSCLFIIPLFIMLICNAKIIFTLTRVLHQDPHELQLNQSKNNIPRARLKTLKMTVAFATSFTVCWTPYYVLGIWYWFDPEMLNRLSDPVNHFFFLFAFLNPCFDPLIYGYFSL
Description: To analyze the specificity of the LHRH-DIV3W tandem peptide targeting LHRH receptor, a competitive binding assay was performed by incubating OVCAR3 and CAOV3 cells with GnRHR primary antibody (1:100) in 1× PBS overnight at 4° C. after being blocked with a 1% bovine serum albumin solution for 30 minutes at room temperature. LHRH-DIV3W-siNT-Cy5.5 complexes were delivered after the overnight primary antibody incubation and incubated again for 4 hours. Secondary SuperSignal Alexa Fluor 488 antibodies were delivered dropwise to cells following Invitrogen SuperSignal protocols and left to incubate at room temperature for 30 minutes and subsequently stained with SuperSignal NucBlue Hoescht 33342 for an additional 30 minutes at room temperature. Cells were imaged at 20× and 40× using an Evos FL microscope (Thermo Fisher).

CAOV3 cells [3] = test system: CAOV3 cells
Description: Cells were seeded at 10,000 cells per well with complete culture media in a 96-well plate and incubated overnight to allow the cells to attach. DIV3 (X) peptides were complexed with siNT at 40:1 to 80:1 N:P molar ratios. DIV3 (X)-siNT complexes were incubated with OVCAR3 or CAOV3 cells at a final concentration of 100 nM siRNA and 10% FBS for 24 hours. Media was then aspirated, cells were washed with 1× phosphate-buffered saline (PBS), and fresh media with 10% FBS was added to each well and incubated another 24 hours.
Viability was measured using an MTS Assay performed with CellTiter 96 AQueous One Solution Cell Proliferation Assay (Promega, Madison, WI). Assay reagent was added according to the manufacturer's protocol, and cells were incubated for 4 hours. Absorbance was read using a BioTek Synergy LX (BioTek, Winooksi, VT) plate reader at 490 nm. […]
OVCAR3 or CAOV3 cells were seeded at 10,000 cells per well with complete culture media in a transparent 96-well plate and incubated overnight to allow the cells to attach. […] After 24 hours of incubation the media was exchanged and after another 24-hour incubation at 37° C. in 5% CO2, viability was measured using an MTS Assay performed with the CellTiter 96 AQueous One Solution Assay (Promega, Madison, WI). […] Absorbance was read using a BioTek Synergy LX (BioTek, Winooksi, VT) plate reader at 490 nm.

Substance: pGHWSY-(d) LLRPGGGGGWEADIVADIVWDIVADIVAGGG-(d) RRRRRRRRR ([pG]HWSY[dL]LRPGGGGGWEADIVADIVWDIVADIVAGGG[dR][dR][dR][dR][dR][dR][dR][dR][dR]; reading uncertain) [LHRH-DIV3W]
- intact siRNA after incubation in 50% serum [1]: fully protect siRNA cargo from degradation
- uptake efficiency higher than DIV3W uptake (CAOV3 cells [2]; CAOV3): 11%
- uptake efficiency (CAOV3 cells [2]; CAOV3, siNT-Cy5.5, 4 hours): 36.19%+9.67% and 36.19%±16.76%
- uptake efficiency (CAOV3 cells [2]; CAOV3, siNT-Cy5.5, 24 hours): 63.47%+4.61% and 63.4%±4.6%
- siRNA internalization after preincubation with LHRH receptor antibody (LHRH receptor): siRNA internalization was drastically decreased; also recorded: minimal siRNA internalization
- cytotoxicity of peptide alone (CAOV3 cells [3]): did not cause cytotoxic effects
